Laboratory results: US20190184028A1 (Janssen / Centocor, published 2019)

biological target: prostate specific membrane antigen (PSMA) (UniProt Q04609 1-750, limits assumed); assay: cell-based or functional assay
Sequence (Q04609 whole entry): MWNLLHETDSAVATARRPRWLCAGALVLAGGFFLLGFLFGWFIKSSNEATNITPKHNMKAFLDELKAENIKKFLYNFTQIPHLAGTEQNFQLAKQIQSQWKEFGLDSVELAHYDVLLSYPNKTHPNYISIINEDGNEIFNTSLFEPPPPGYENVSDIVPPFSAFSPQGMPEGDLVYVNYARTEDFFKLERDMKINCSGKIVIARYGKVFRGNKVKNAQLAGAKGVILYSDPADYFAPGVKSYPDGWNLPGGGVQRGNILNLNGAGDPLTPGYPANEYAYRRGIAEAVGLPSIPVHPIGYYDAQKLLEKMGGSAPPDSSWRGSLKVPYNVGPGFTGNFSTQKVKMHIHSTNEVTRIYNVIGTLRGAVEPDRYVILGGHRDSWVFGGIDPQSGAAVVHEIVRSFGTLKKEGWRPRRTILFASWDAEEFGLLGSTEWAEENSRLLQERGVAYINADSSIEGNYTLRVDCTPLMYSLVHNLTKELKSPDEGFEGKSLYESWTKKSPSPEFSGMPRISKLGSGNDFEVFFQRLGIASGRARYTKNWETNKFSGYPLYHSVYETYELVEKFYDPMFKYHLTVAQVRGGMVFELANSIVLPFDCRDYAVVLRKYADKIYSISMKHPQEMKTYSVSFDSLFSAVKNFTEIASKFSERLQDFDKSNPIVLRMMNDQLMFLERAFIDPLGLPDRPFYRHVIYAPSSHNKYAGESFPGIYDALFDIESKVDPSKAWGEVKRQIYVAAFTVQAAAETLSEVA

Binder | LNCaP cells IC50 (nM), cytotoxicity (CellTiterGlo) [nM] | MDA-PCA-2B cells IC50 (nM), cytotoxicity (CellTiterGlo) [nM] | VCAP cells IC50 (nM), cytotoxicity (CellTiterGlo) [nM]
P229CR5P819_H11 vcMMAF conjugate (designed binder, vc-MMAF conjugated through a sortase tag (Gly3-vc-MMAF, sortase A)) LPAPKNLVVSRVTEDSARLSWDIDEQRDWFDSFLIQYQESEKVGEAIVLTVPGSERSYDLTGLKPGTEYTVSIYGVYHVYRSSNPLSAIFTT | 9.3 | 107 | 231
P233FR9P1001-H3-1 vcMMAF conjugate (designed binder, vc-MMAF conjugated through a sortase tag (Gly3-vc-MMAF, sortase A)) LPAPKNLVVSRVTEDSARLSWTAPDAAFDSFPIGYWEWDDDGEAIVLTVPGSERSYDLTGLKPGTEYHVYIAGVKGGQWSFPLSAIFTT | 0.4 | 4.6 | 15.2
P233FR9_H10 vcMMAF conjugate (designed binder, vc-MMAF conjugated through a sortase tag (Gly3-vc-MMAF, sortase A)) LPAPKNLVVSRVTEDSARLSWTAPDAAFDSFAIGYWEWDDDGEAIVLTVPGSERSYDLTGLKPGTEYPVYIAGVKGGQWSFPLSAIFTT | 0.5 | 5.8 | 25.9
P234CR9_H01 vcMMAF conjugate (designed binder, vc-MMAF conjugated through a sortase tag (Gly3-vc-MMAF, sortase A)) LPAPKNLVVSRVTEDSARLSWEWWVIPGDFDSFLIQYQESEKVGEAIVLTVPGSERSYDLTGLKPGTEYTVSIYGVVNSGQWNDTSNPLSAIFTT | 22.6 | 151 | 401

biological target: T1, human EpCAM (human, UniProt P16422 24-314); assay: cell-based or functional assay
T1 sequence (looked up): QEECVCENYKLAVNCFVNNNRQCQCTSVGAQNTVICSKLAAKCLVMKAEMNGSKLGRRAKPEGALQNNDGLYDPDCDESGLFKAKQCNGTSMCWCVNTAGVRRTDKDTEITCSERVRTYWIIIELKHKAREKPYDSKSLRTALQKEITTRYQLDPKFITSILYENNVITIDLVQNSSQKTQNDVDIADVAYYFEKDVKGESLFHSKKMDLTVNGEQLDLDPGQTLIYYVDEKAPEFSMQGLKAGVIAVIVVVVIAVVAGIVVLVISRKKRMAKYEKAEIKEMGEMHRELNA

Binder | Cytotoxicity Assays of CDCs, A431 cells IC50 (nm) | Cytotoxicity Assays of CDCs, HT-29 cells IC50 (nm)
ISOP130R5CP6_A06_cys vcMMAF conjugate (designed binder, vc-MMAF on the C-terminal cysteine (cysteine-maleimide chemistry)) MLPAPKNLVVSRVTEDSARLSWKHYRPGARFDSFLIQYQESEKVGEAIVLTVPGSERSYDLTGLKPGTEYTVSIYGVVTALPSYYSSNPLSAIFTTGGHHHHHHGGC | 9.9 | 6.7
ISOP130R5CP7_G04_cys vcMMAF conjugate (designed binder, vc-MMAF on the C-terminal cysteine (cysteine-maleimide chemistry)) MLPAPKNLVVSRVTEDSARLSWKHYRPGARFDSFLIQYQESEKVGEAIVLTVPGSERSYDLTGLKPGTEYTVSIYGVAAHAIPRYASNPLSAIFTTGGHHHHHHGGC | 48.1 | 37.7

biological target: T1, human EpCAM; assay: cell-based or functional assay; remark: another data set of the same source

Binder | % viable COLO205 cells, 1 nM [%]
ISOP130R5CP6_F01srt vcMMAF conjugate (designed binder, vcMMAF conjugated via the sortase reaction at the C-terminal sortase tag (Gly3-vcMMAF)) MLPAPKNLVVSRVTEDSARLSWKHYRPGARFDSFLIQYQESEKVGEAIVLTVPGSERSYDLTGLKPGTEYTVSIYGVVTALPSNYISNPLSAIFTTGGHHHHHHGGLPETGGH | 43
ISOP130R5CP6_E08srt vcMMAF conjugate (designed binder, vcMMAF conjugated via the sortase reaction at the C-terminal sortase tag (Gly3-vcMMAF)) MLPAPKNLVVSRVTEDSARLSWKHYRPGARFDSFLIQYQESEKVGEAIVLTVPGSERSYDLTGLKPGTEYTVSIYGVVAALPNNYASNPLSAIFTTGGHHHHHHGGLPETGGH | 66
ISOP130R5CP6_A06srt vcMMAF conjugate (designed binder, vcMMAF conjugated via the sortase reaction at the C-terminal sortase tag (Gly3-vcMMAF)) MLPAPKNLVVSRVTEDSARLSWKHYRPGARFDSFLIQYQESEKVGEAIVLTVPGSERSYDLTGLKPGTEYTVSIYGVVTALPSYYSSNPLSAIFTTGGHHHHHHGGLPETGGH | 67
ISOP130R5CP7_G02srt vcMMAF conjugate (designed binder, vcMMAF conjugated via the sortase reaction at the C-terminal sortase tag (Gly3-vcMMAF)) MLPAPKNLVVSRVTEDSARLSWKHYRPGARFDSFLIQYQESEKVGEAIILTVPGSERSYDLTGLKPGTEYTVSIYGVVTHALPTAYTSNPLSAIFTTGGHHHHHHGGLPETGGH | 39
ISOP130R5CP7_F11srt vcMMAF conjugate (designed binder, vcMMAF conjugated via the sortase reaction at the C-terminal sortase tag (Gly3-vcMMAF)) MLPAPKNLVVSRVTEDSARLSWKHYRPGARFDSFLIQYQESEKVGEAIVLTVPGSERSYDLTGLKPGTEYTVSIYGVIWGALPNSYSSNPLSAIFTTGGHHHHHHGGLPETGGH | 81
ISOP130R5CP6_A02srt vcMMAF conjugate (designed binder, vcMMAF conjugated via the sortase reaction at the C-terminal sortase tag (Gly3-vcMMAF)) MLPAPKNLVVSRVTEDSARLSWKHYRPGARFDSFLIQYQESEKVGEAIVLTVPGSERSYDLTGLKPGTEYTVSIYGVVNNALPRWYISNPLSAIFTTGGHHHHHHGGLPETGGH | 66
ISOP130R5CP6_F02srt vcMMAF conjugate (designed binder, vcMMAF conjugated via the sortase reaction at the C-terminal sortase tag (Gly3-vcMMAF)) MLPAPKNLVVSRVTEDSARLSWDQYRKYAGFDSFLIQYQESEKVGEAIVLTVPGSERSYDLTGLKPGTEYTVSIYGVVTHALPQTYQSNPLSAIFTTGGHHHHHHGGLPETGGH | 90

biological target: T1, human EpCAM; assay: cell-based or functional assay; remark: another data set of the same source

Binder | IC50 (nM), cytotoxicity on COLO205 cells (CellTiterGlo) [nM]
ISOP130R5CP6_A06_R30A vcMMAF conjugate (designed binder, vcMMAF conjugated via the sortase reaction at the C-terminal sortase tag) MLPAPKNLVVSRVTEDSARLSWKHYRPGAAFDSFLIQYQESEKVGEAIVLTVPGSERSYDLTGLKPGTEYTVSIYGVVTALPSYYSSNPLSAIFTTGGHHHHHHGGLPETGGH | 0.8
ISOP130R5CP6_A06_S86A vcMMAF conjugate (designed binder, vcMMAF conjugated via the sortase reaction at the C-terminal sortase tag) MLPAPKNLVVSRVTEDSARLSWKHYRPGARFDSFLIQYQESEKVGEAIVLTVPGSERSYDLTGLKPGTEYTVSIYGVVTALPSYYASNPLSAIFTTGGHHHHHHGGLPETGGH | 1.3
ISOP130R5CP6_A06_V78A vcMMAF conjugate (designed binder, vcMMAF conjugated via the sortase reaction at the C-terminal sortase tag) MLPAPKNLVVSRVTEDSARLSWKHYRPGARFDSFLIQYQESEKVGEAIVLTVPGSERSYDLTGLKPGTEYTVSIYGVATALPSYYSSNPLSAIFTTGGHHHHHHGGLPETGGH | 4.5
ISOP130R5CP6_A06_H24A vcMMAF conjugate (designed binder, vcMMAF conjugated via the sortase reaction at the C-terminal sortase tag) MLPAPKNLVVSRVTEDSARLSWKAYRPGARFDSFLIQYQESEKVGEAIVLTVPGSERSYDLTGLKPGTEYTVSIYGVVTALPSYYSSNPLSAIFTTGGHHHHHHGGLPETGGH | 2.6
ISOP130R5CP6_A06_G28A vcMMAF conjugate (designed binder, vcMMAF conjugated via the sortase reaction at the C-terminal sortase tag) MLPAPKNLVVSRVTEDSARLSWKHYRPAARFDSFLIQYQESEKVGEAIVLTVPGSERSYDLTGLKPGTEYTVSIYGVVTALPSYYSSNPLSAIFTTGGHHHHHHGGLPETGGH | 0.8
ISOP130R5CP6_A06_P82A vcMMAF conjugate (designed binder, vcMMAF conjugated via the sortase reaction at the C-terminal sortase tag) MLPAPKNLVVSRVTEDSARLSWKHYRPGARFDSFLIQYQESEKVGEAIVLTVPGSERSYDLTGLKPGTEYTVSIYGVVTALASYYSSNPLSAIFTTGGHHHHHHGGLPETGGH | 326
ISOP130R5CP6_A06_Y85A vcMMAF conjugate (designed binder, vcMMAF conjugated via the sortase reaction at the C-terminal sortase tag) MLPAPKNLVVSRVTEDSARLSWKHYRPGARFDSFLIQYQESEKVGEAIVLTVPGSERSYDLTGLKPGTEYTVSIYGVVTALPSYASSNPLSAIFTTGGHHHHHHGGLPETGGH | 564
ISOP130R5CP6_A06_Y25A vcMMAF conjugate (designed binder, vcMMAF conjugated via the sortase reaction at the C-terminal sortase tag) MLPAPKNLVVSRVTEDSARLSWKHARPGARFDSFLIQYQESEKVGEAIVLTVPGSERSYDLTGLKPGTEYTVSIYGVVTALPSYYSSNPLSAIFTTGGHHHHHHGGLPETGGH | 127
ISOP130R5CP6_A06_T79A vcMMAF conjugate (designed binder, vcMMAF conjugated via the sortase reaction at the C-terminal sortase tag) MLPAPKNLVVSRVTEDSARLSWKHYRPGARFDSFLIQYQESEKVGEAIVLTVPGSERSYDLTGLKPGTEYTVSIYGVVAALPSYYSSNPLSAIFTTGGHHHHHHGGLPETGGH | 0.5
ISOP130R5CP6_A06_Y84A vcMMAF conjugate (designed binder, vcMMAF conjugated via the sortase reaction at the C-terminal sortase tag) MLPAPKNLVVSRVTEDSARLSWKHYRPGARFDSFLIQYQESEKVGEAIVLTVPGSERSYDLTGLKPGTEYTVSIYGVVTALPSAYSSNPLSAIFTTGGHHHHHHGGLPETGGH | 0.4
ISOP130R5CP6_A06_R26A vcMMAF conjugate (designed binder, vcMMAF conjugated via the sortase reaction at the C-terminal sortase tag) MLPAPKNLVVSRVTEDSARLSWKHYAPGARFDSFLIQYQESEKVGEAIVLTVPGSERSYDLTGLKPGTEYTVSIYGVVTALPSYYSSNPLSAIFTTGGHHHHHHGGLPETGGH | 507
ISOP130R5CP6_A06_L81A vcMMAF conjugate (designed binder, vcMMAF conjugated via the sortase reaction at the C-terminal sortase tag) MLPAPKNLVVSRVTEDSARLSWKHYRPGARFDSFLIQYQESEKVGEAIVLTVPGSERSYDLTGLKPGTEYTVSIYGVVTAAPSYYSSNPLSAIFTTGGHHHHHHGGLPETGGH | 76
ISOP130R5CP6_A06_S83A vcMMAF conjugate (designed binder, vcMMAF conjugated via the sortase reaction at the C-terminal sortase tag) MLPAPKNLVVSRVTEDSARLSWKHYRPGARFDSFLIQYQESEKVGEAIVLTVPGSERSYDLTGLKPGTEYTVSIYGVVTALPAYYSSNPLSAIFTTGGHHHHHHGGLPETGGH | 1.4
ISOP130R5CP6_A06_K23A vcMMAF conjugate (designed binder, vcMMAF conjugated via the sortase reaction at the C-terminal sortase tag) MLPAPKNLVVSRVTEDSARLSWAHYRPGARFDSFLIQYQESEKVGEAIVLTVPGSERSYDLTGLKPGTEYTVSIYGVVTALPSYYSSNPLSAIFTTGGHHHHHHGGLPETGGH | 1
ISOP130R5CP6_A06_P27A vcMMAF conjugate (designed binder, vcMMAF conjugated via the sortase reaction at the C-terminal sortase tag) MLPAPKNLVVSRVTEDSARLSWKHYRAGARFDSFLIQYQESEKVGEAIVLTVPGSERSYDLTGLKPGTEYTVSIYGVVTALPSYYSSNPLSAIFTTGGHHHHHHGGLPETGGH | 42.6
ISOP130R5CP6_A06srt vcMMAF conjugate (designed binder, vcMMAF conjugated via the sortase reaction at the C-terminal sortase tag (Gly3-vcMMAF)) MLPAPKNLVVSRVTEDSARLSWKHYRPGARFDSFLIQYQESEKVGEAIVLTVPGSERSYDLTGLKPGTEYTVSIYGVVTALPSYYSSNPLSAIFTTGGHHHHHHGGLPETGGH | 1.6
